The series concerns the target PDGF-BB (UniProt P01127 P01127:82-190). Put plainly: SPR; aptamer on DNA honeycomb on gold; phosphate buffer 137 mM NaCl, 2.7 mM KCl, 1 mM MgCl2, pH 7.4. As to conditions: chain copies: 2 (homodimer, inferred). The procedure:
The sensing surface was then exposed to the Platelet-derived growth factor aptamer which had been modified, as in Table III (SEQ ID NO:16), to include a 25 bp poly A tail at a concentration of 50 nM in 10 mM Tris pH 7.4 1 M NaCl 1 mM EDTA and incubated for an hour.
The sensing surface was washed with 10.1 mM Na₂HPO₄, 1.8 mM KH₂PO₄, 137 mM NaCl and 2.7 mM KCl, 1 mM MgCl2, pH 7.4. Detection of PDGF was performed in the same buffer where the surface was exposed to increasing concentrations of the ligands and response was recorded.
A general note: SPR reads the build-up and loss of mass on a sensor chip optically.

PDGF-BB, sequence (P01127 82-190, one chain of several): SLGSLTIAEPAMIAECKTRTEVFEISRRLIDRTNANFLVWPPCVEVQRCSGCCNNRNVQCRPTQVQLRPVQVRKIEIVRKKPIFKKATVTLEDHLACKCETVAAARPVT

B1: PDGF-BB aptamer with 25-nt poly A tail (SEQ ID NO: 16), on honeycomb DNA scaffold (ssDNA)
DNA: CACAGGCTACGGCACGTAGAGCATCACCATGATCCTGTGAAAAAAAAAAAAAAAAAAAAAAAAA
B1: the dissociation constant (Kd) is 0.028 µM.

As usually defined, the Kd is a measure of binding affinity in units of concentration. A higher Kd goes with weaker binding.
